Experimental data: publication PMC3155532

Columns and labels:
Conditions in all cases: remark: other sources report otherwise
[1] = biological target: 3xflag-LRRK2 (leucine rich repeat kinase 2), wild type (UniProt Q5S007); assay: SEC; purified 3xflag-LRRK2 (flag-M2 beads, eluted with 3xflag peptide), Superose 6 10/300 GL, 4°C, SEC running buffer with 10 µM GDP or GTPγS; fractions read by flag-M2 dot blot; higher molecular weight peaks also seen
[2] = biological target: 3xflag-LRRK2 (leucine rich repeat kinase 2), wild type (UniProt Q5S007); assay: native gel or EMSA; native PAGE of 3xflag-LRRK2 purified from lysates treated with GDP, GTPγS or GMPPCP (10, 100 and 500 µM, 30 minutes at 30°C); silver stain and flag-M2 immunoblot
[3] = biological target: 3xflag-LRRK2 (leucine rich repeat kinase 2), wild type (UniProt Q5S007); assay: SEC; cleared HEK293T cell lysates expressing 3xflag-LRRK2, Superose 6 10/300 GL, 4°C, SEC running buffer (25 mM Tris pH 7.4, 150 mM NaCl, 5 mM MgCl2, 0.02% Triton, 1 mM DTT) with 10 µM GDP or GTPγS; fractions read by flag-M2 dot blot

Measured: stoichiometry N

3xflag-LRRK2 (leucine rich repeat kinase 2), wild type, Q5S007 1-2527
2: all assays above
